T1: biotinylated dimeric human CD48 protein expressed as a fusion with mouse IgG2a Fc (human, biotinylated)
T1 construct: also called bio-hCD48-mFc; Dimeric human CD48-mFc
T1 chain: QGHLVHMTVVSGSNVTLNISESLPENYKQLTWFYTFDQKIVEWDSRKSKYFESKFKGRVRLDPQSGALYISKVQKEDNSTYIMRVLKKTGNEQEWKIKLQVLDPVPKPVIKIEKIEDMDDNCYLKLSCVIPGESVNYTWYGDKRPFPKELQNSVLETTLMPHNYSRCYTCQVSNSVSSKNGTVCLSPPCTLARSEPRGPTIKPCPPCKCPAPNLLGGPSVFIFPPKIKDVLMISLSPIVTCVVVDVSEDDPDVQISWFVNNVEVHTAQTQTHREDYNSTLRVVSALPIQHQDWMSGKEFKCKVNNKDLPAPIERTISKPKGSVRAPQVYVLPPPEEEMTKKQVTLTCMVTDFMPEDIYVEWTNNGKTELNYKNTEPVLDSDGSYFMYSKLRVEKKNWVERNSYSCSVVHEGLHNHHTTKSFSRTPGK

T2: human CD48 (on primary human peripheral blood mononuclear cells) (human, UniProt P09326 27-220)
T2 sequence: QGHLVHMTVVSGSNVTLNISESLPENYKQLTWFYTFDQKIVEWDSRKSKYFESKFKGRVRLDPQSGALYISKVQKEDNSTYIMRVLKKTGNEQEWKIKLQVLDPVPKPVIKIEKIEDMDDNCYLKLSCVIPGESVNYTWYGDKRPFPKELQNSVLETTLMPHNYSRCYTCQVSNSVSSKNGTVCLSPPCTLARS

T3: monomeric monkey CD48 expressed with a tag consisting of 2 myc and one 6-His epitopes (monkey)
T3 construct: also called mfCD48-mmH; Monomeric monkey CD48-mmH
T3 chain: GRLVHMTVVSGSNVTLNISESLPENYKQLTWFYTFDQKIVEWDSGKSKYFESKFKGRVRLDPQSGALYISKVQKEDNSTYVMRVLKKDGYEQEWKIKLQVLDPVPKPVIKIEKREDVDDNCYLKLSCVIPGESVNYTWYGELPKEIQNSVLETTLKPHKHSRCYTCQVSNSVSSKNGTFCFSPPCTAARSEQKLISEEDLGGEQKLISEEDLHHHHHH


Experiments:
[1] = molecular target: T1, biotinylated dimeric human CD48 protein …; test: competition ELISA; blocks bio-hCD48-mFc binding to coated h2B4-mFc
Method: (§1) The ability of human anti-CD48 monoclonal antibodies to block human CD48 and monkey CD48 binding to the human cognate ligand, human 2B4, was measured using a competition sandwich ELISA (Table 8). Constant amounts of biotinylated dimeric human CD48 protein expressed as a fusion with mouse IgG2a Fc (“bio-hCD48-mFc” [SEQ ID NO: 387]) or monomeric monkey CD48 expressed with a tag consisting of 2 myc and one 6-His epitopes (“mfCD48-mmH” [SEQ ID NO: 386]) were separately titrated with varying amounts of antibodies. These antibody-protein complexes were incubated (1 hr, 25° C.) before being transferred to microtiter plates coated with a dimeric construct expressing the human 2B4 receptor fused to a either human IgG1 (h2B4-hFc [R&D Systems, Inc., Minneapolis, Minn., Cat. No. 1039-2B]) or mouse IgG2a Fc (h2B4-mFc [SEQ ID NO: 389). After a 1 hr at 25° C. the wells were washed and bound human CD48 was detected with streptavidin conjugated with horse-radish peroxidase (HRP), and monkey CD48 was detected with an HRP conjugated anti-myc polyclonal antibody. The ELISA was developed with a TMB solution to produce a colorimetric reaction and quenched with sulfuric acid before reading absorbance at 450 nm on a Victor X5 plate reader. Sigmoidal dose response curves were fit to the data using Prism™ software. […] (Tables 8 and 9, NB=no binding observed)

[2] = molecular target: T2, human CD48 (on primary human peripheral …); test: cell-based or functional assay
[3] = molecular target: T3, monomeric monkey CD48 expressed with a …; test: competition ELISA; blocks mfCD48-mmH binding to coated h2B4-mFc
Method: as §1

[4] = molecular target: T2, human CD48 (on primary human peripheral …); test: cell-based or functional assay; remark: listed apart in the source
[5] = molecular target: T2, human CD48 (on primary human peripheral …); test: cell-based or functional assay; remark: listed apart in the source
[6] = molecular target: T2, human CD48 (on primary human peripheral …); test: cell-based or functional assay; remark: listed apart in the source

IC50 [1] [pM] | % Blockade of IFNγ release, MLR; D1 [2] [%] | % Blockade of IFNγ release, MLR; D2 [2] [%] | % Blockade of IFNγ release, MLR; D3 [2] [%] | % Blockade of IFNγ release, MLR; D5 [2] [%] | % Blockade of IFNγ release, MLR; D6 [2] [%] | % Blockade of IFNγ release, MLR; D7 [2] [%] | IC50 [3] [pM] | Inhibition of IFN-gamma Release IC50; Donor 9 [4] [Molar] | Inhibition of IFN-gamma Release IC50; Donor 11 [4] [Molar] | % Blockade of IFNγ release, MLR; D8 [2] [%] | % Blockade of IFNγ release, MLR; D9 [2] [%] | Inhibition of IFN-gamma Release IC50; Donor 6 [6] [Molar] | Binder | further results
76 | 69 | 46 | 80 | 75 | 59 | 48 | 160 | 3.1e-11 | 2.3e-11 | – | – | – | H4H1764N (antibody, human IgG4, V domains shown, Human IgG4 Fc (H4H) form of 1764N) VH: QVQLVESGGGVVQPGRSLRLSCAASGFTFSDYGMHWVRQAPGKGLEWVAVIWNDGSNKNYADSVKGRFSISSDSSKNTLYLHMNSLRAEDTAVYYCARSLYSTSPWYFDLWGRGTLVTVSS VL: not shown | Inhibition of IFN-gamma Release IC50; Donor 8 [4]: 5.3e-12 Molar; Inhibition of IFN-gamma Release IC50; Donor 10 [4]: 5.1e-12 Molar
7.4 | 59 | 89 | 68 | 63 | 75 | 48 | 7.2 | 9.3e-12 | 3.4e-12 | 30 | 53 | – | H4H1763N (antibody, human IgG4, V domains shown, Human IgG4 Fc (H4H) form of 1763N) VH: QIQLVQSGAEMKRPGTSVKVSCKASGYTFTSYGINWVRQAPGQGLEWMGWISAYNGDTNYAQKLQGRVTMTTDTSTTTAYMEVRSLRSDDTAVYYCARFLTGTKDYYYGMDVWGQGTTVTVSS VL: DIQMTQSPSSLSASVGDRVTITCQASQDISNFLNWYQQKPGKAPDLLINDASILETGVPSRFSGSGSGTDFTLTINNLQPEDIATYYCQQYDNLPLTFGGGTKVEIK | IC50 of IFNγ release, MLR; D1 [5]: ~10 pM; IC50 of IFNγ release, MLR; D3 [5]: ~6.4 pM; IC50 of IFNγ release, MLR; D4 [5]: 210 pM; IC50 of IFNγ release, MLR; D5 [5]: ~27 pM; IC50 of IFNγ release, MLR; D6 [5]: 23 pM; IC50 of IFNγ release, MLR; D8 [5]: ~3700 pM; IC50 of IFNγ release, MLR; D9 [5]: ~4100 pM; IC50 of IFNγ release, MLR; D10 [5]: ~84 pM; IC50 of IFNγ release, MLR; D11 [5]: 73 pM; IC50 of IFNγ release, MLR; D12 [5]: ~56 pM; IC50 of IFNγ release, MLR; D13 [5]: 92 pM; IC50 of IFNγ release, MLR; D14 [5]: 63 pM; IC50 of IFNγ release, MLR; D15 [5]: ~0.059 pM; IC50 of IFNγ release, MLR; D16 [5]: 7.6 pM; % Blockade of IFNγ release, MLR; D4 [2]: 52%; Inhibition of IFN-gamma Release IC50; Donor 8 [4]: 8.6e-12 Molar; Inhibition of IFN-gamma Release IC50; Donor 10 [4]: 1e-12 Molar
9.9 | 78 | 79 | 88 | 47 | 50 | 36 | 2.2 | – | 1.5e-11 | – | 32 | – | H4H1771P (antibody, human IgG4, V domains shown, Human IgG4 Fc (H4H)) VH: QVQLVQSGTEVKKPGASVKVSCKVSGYTLIDLSIHWVRQAPGEGLEWMGGFDPEESETIYAQKFQGRVTMTEDTSTDTAYMELSSLRSEDTAVYYCVTEPIFGILIHESWGQGTLVTVSS VL: DIVMTQTPLSSPVTLGQPASISCRSSHSPVHSNGHTYLSWLQQRPGQPPRILIYKISRRFSGVPDRFSGSGAGTDFTLKISRVETEDVGIYYCMQASQFPWTFGQGTKVEIK | –
25 | – | – | – | – | – | – | 16 | – | – | – | – | 2.5e-11 | H4H1774P (antibody, human IgG4, V domains shown, Human IgG4 Fc (H4H)) VH: QVQLVESGGGVVQPGRSLRLSCAASGFTFSNYGMHWVRQAPGKGLEWVAVIWYDESSKYYTDSVKGRFTISRDNSQNTLYLQMTSLRAEDTAVYYCARDRWTYSHYFEYWGQGTLVTVSS VL: DIQMTQSPSSVSASVGDRVTITCRASQGISSWVAWYQQKPGKAPKLLIYAASSLQSGVPSRFSGSGSGTDFTLTISSLQPEDFATYYCQQANSFPRTFGQGTKVEIK | Inhibition of IFN-gamma Release IC50; Donor 7 [6]: 9.5e-12 Molar
– | – | 60 | 39 | 43 | 60 | 51 | – | 5.7e-12 | 1.9e-11 | 40 | – | – | H4H1769Pa (antibody, human IgG4, V domains shown) VH: QVQLVQSGAEVKKPGASVKVSCKTSGYTFAGYGITWVRQAPGRGLEWMGWVSAYNGDTDYAQSLQGRVTMTTDTSTSTAYMELRSLRSDDTAMYYCARDRYSSSSGYFDYWGQGTLVTVSS VL: DIQMTQSPSSVSASVGDRVTITCRASQGISSWLAWHQQKPGKAPKVLIYAASSLHSGVPSRFSGSGSGTEFTLTISSLQPEDFATYYCQQANTFPYTFGQGTKLEIK | –
18 | – | – | – | – | – | – | 3.4 | – | – | – | – | – | H4H1713N (antibody, human IgG4, V domains shown, Human IgG4 Fc (H4H) form of 1713N) VH: QVQLVQSGAEVKKPGASVKVSCKASGHTFTNYYIHWVRQAPGQGLEWMGITNPNDGNTRYAQKFQGRISMTWDTSTSTVFMELSSLKSEDTAVYYCAGLRYWFFDLWGRGTPVTVSS VL: DIQMTQSPSSVSASVGDRVTITCRASQDISSWLAWYQQKPGKAPNLLIFAASSLQSGVPSRFSGSGSGTDFTLTISSLQPEDFGTYYCQQTDNFPRTFGQGTKVEIN | –
56 | – | – | – | – | – | – | 8.4 | – | – | – | – | 9.8e-12 | H4H1778P (antibody, human IgG4, V domains shown, Human IgG4 Fc (H4H)) VH: QVQLVESGGGVVQPGRSLRLSCAASGFTFSNYGMHWVRQAPGKGLEWVAVIWYDESSKYYTDSVKGRFTISRDNSQNTLYLQMTSLRAEDTAVYYCARDRWTYSHYFEYWGQGTLVTVSS VL: DIQMTQSPSSVSASVGDRVTITCRASQGISSWVAWYQQKPGKAPKLLIYAASSLQSGVPSRFSGSGSGTDFTLTISSLQPEDFATYYCQQANSFPRTFGQGTKVEIK | –
20 | – | – | – | – | – | – | 22 | – | – | – | – | – | H4H1770P (antibody, human IgG4, V domains shown, Human IgG4 Fc (H4H)) VH: QVQLVQSGAEVKKPGAAVKVSCKASGYTFTAYGISWVRQAPGQGLEWMGWISAYDGDTNNAQKFQGRVTMTTDTSSSTAYMELRSLGSDDTAVYYCARDRYSSSSGYFDYWGQGTLVTVSS VL: DIQMTQSPSSVSASVGDRVTITCRASQDISSWLAWSQQKPGKAPKALIYAASSLQSGVPSRFSGSGSGTDFTLTISSLQPEDFATYYCQQANSFPYTFGQGTKLEIK | –
16 | – | – | – | – | – | – | 5.7 | – | – | – | – | 1.7e-12 | H4H1779P (antibody, human IgG4, V domains shown, Human IgG4 Fc (H4H)) VH: QVQLVESGGGVVQPGRSLRLSCAASGFTFSNYGMHWVRQAPGKGLEWVAVIWYDESSKHYADSVKGRFTISRDNSQNTLYLQMTSLRAEDTAVYYCARDRWTYSHYFEYWGQGTLVTVSS VL: DIQMTQSPSSVSASVGDRVTITCRASQDISSWVAWYQQKPGKAPKLLIYAASSLQSGVPSRFSGSGSGTDFTLTISSLQPEDFATYYCQQANSFPRTFGQGTKVEIK | Inhibition of IFN-gamma Release IC50; Donor 7 [6]: 1.5e-11 Molar
22 | 66 | 87 | 78 | 62 | 77 | 62 | 45 | 5.1e-11 | – | 42 | 60 | – | H4H1707N (antibody, V domains shown, Human IgG4 Fc (H4H) form of 1707N) VH: EGQLLESGGGLAQPGGSLRLSCAASGITFGRYAMSWVRQAPGKGLEWVSLISGSGGSTYHADSVKGRFTISRDNSKNTLYLQMNSLRAEDTAVYYCAIYNNYNWFDPWGQGTLVTVSS VL: EIVLTQSPGTLSLSPGERATLSCRASQSVSSNYLAWYQQKPGQAPRLLIYDASSRATDIPDRFSGSGSGTDFTLTISRLEPEDFAVYYCQQYGSSPRTFGQGTKVEIK | % Blockade of IFNγ release, MLR; D4 [2]: 20%
